Series [1] relates to HeLa Kyoto. The series can be described thus: solubility in G1/S (NP-40 vs SDS abundance) (log2 ratio); higher = more soluble. The settings on record: cell cycle stage: G1/S.
For series [2], the system named is HeLa Kyoto. The series can be described thus: melting temperature (median over replicates), in situ; higher = more thermally stable.
In series [3] the test system is HeLa Kyoto. The series can be described thus: solubility change mitosis vs G1/S (difference of NP-40 vs SDS log2 ratios) (log2 ratio difference); higher = more soluble in mitosis.
The test system of series [4] is HeLa Kyoto. The series can be described thus: thermal stability score vs G1/S (z-score of summed log2 fold changes over temperatures); higher = more thermally stable than in G1/S.
[5] abbreviates: cell cycle stage: early G1 (4.5 h after nocodazole release).
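Wherever melting temperature (median over replicates), in situ is given: HeLa Kyoto cells synchronized by double thymidine or nocodazole block, proteins quantified by TMT10plex mass spectrometry, three independent biological replicates.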
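Wherever solubility change mitosis vs G1/S (difference of NP-40 vs SDS log2 ratios) is given: synchronized HeLa Kyoto cells (double thymidine block for G1/S, nocodazole release for mitosis), protein amounts in NP-40 versus SDS lysates quantified by mass spectrometry, three biological replicates.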
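Wherever solubility in G1/S (NP-40 vs SDS abundance) is given: HeLa Kyoto cells arrested at G1/S by double thymidine block, proteins quantified by TMT10plex mass spectrometry in mild NP-40 versus SDS extracts, three biological replicates.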
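Wherever thermal stability score vs G1/S (z-score of summed log2 fold changes over temperatures) is given: synchronized HeLa Kyoto cells, proteins quantified by TMT10plex mass spectrometry, three biological replicates, mitosis taken 0.5 h after nocodazole release, G1/S directly after double thymidine block.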

On to “MAELVQGQSAPVGMKAEGFVDALHRVRQIAAKIDSIPHLNNSTPLVDPSVYGYGVQKRPLDDGVGNQLGALVHQRTVITEEFKVPDKMVGFIIGRGGEQISRIQAESGCKIQIASESSGIPERPCVLTGTPESIEQAKRLLGQIVDRCRNGPGFHNDIDSNSTIQEILIPASKVGLVIGRGGETIKQLQERTGVKMVMIQDGPLPTGADKPLRITGDAFKVQQAREMVLEIIREKDQADFRGVRGDFNSRMGGGSIEVSVPRFAVGIVIGRNGEMIKKIQNDAGVRIQFKPDDGISPERAAQVMGPPDRCQHAAHIISELILTAQERDGFGGLAAARGRGRGRGDWSVGAPGGVQEITYTVPADKCGLVIGKGGENIKSINQQSGAHVELQRNPPPNSDPNLRRFTIRGVPQQIEVARQLIDEKVGGTNLGAPGAFGQSPFSQPPAPPHQNTFPPRSSGCFPNMAAKVNGNPHSTPVSGPPAFLTQGWGSTYQAWQQPTQQVPSQQSQPQSSQPNYSKAWEDYYKKQSHAASAAPQASSPPDYTMAWAEYYRQQVAFYGQTLGQAQAHSQEQ [FUBP3]”, for which, in series [1], the “solubility in G1/S (log2)” value is 0.337. For the same sequence, the results for the melting temperature in series [2] (cell cycle stage: G1/S) and in series [2] (cell cycle stage: mitosis) were 48.7 °C and 49.5 °C, respectively. Further, in series [3], the “solubility change mitosis (log2)” value was -0.0288. Besides, the thermal stability score in series [4] (setting [5]) was 0.0807; in series [4] (cell cycle stage: mitosis), 1.05.
Regarding “MSWLFGINKGPKGEGAGPPPPLPPAQPGAEGGGDRGLGDRPAPKDKWSNFDPTGLERAAKAARELEHSRYAKDALNLAQMQEQTLQLEQQSKLKEYEAAVEQLKSEQIRAQAEERRKTLSEETRQHQARAQYQDKLARQRYEDQLKQQQLLNEENLRKQEESVQKQEAMRRATVEREMELRHKNEMLRVEAEARARAKAERENADIIREQIRLKAAEHRQTVLESIRTAGTLFGEGFRAFVTDWDKVTATVAGLTLLAVGVYSAKNATLVAGRFIEARLGKPSLVRETSRITVLEALRHPIQVSRRLLSRPQDALEGVVLSPSLEARVRDIAIATRNTKKNRSLYRNILMYGPPGTGKTLFAKKLALHSGMDYAIMTGGDVAPMGREGVTAMHKLFDWANTSRRGLLLFVDEADAFLRKRATEKISEDLRATLNAFLYRTGQHSNKFMLVLASNQPEQFDWAINDRINEMVHFDLPGQEERERLVRMYFDKYVLKPATEGKQRLKLAQFDYGRKCSEVARLTEGMSGREIAQLAVSWQATAYASEDGVLTEAMMDTRVQDAVQQHQQKMCWLKAEGPGRGDEPSPS [ATAD3A]”, the “solubility in G1/S (log2)” value in series [1] was -0.0262. Further, the melting temperature in series [2] (cell cycle stage: G1/S) came out at 50.5 °C; in series [2] (cell cycle stage: mitosis), 51 °C. Also, the “solubility change mitosis (log2)” value in series [3] is -0.0269. Besides, the figures for the thermal stability score in series [4] (setting [5]) and in series [4] (cell cycle stage: mitosis) were -0.608 and 0.271, respectively.
Take “MRPMRIFVNDDRHVMAKHSSVYPTQEELEAVQNMVSHTERALKAVSDWIDEQEKGSSEQAESDNMDVPPEDDSKEGAGEQKTEHMTRTLRGVMRVGLVAKGLLLKGDLDLELVLLCKEKPTTALLDKVADNLAIQLAAVTEDKYEILQSVDDAAIVIKNTKEPPLSLTIHLTSPVVREEMEKVLAGETLSVNDPPDVLDRQKCLAALASLRHAKWFQARANGLKSCVIVIRVLRDLCTRVPTWGPLRGWPLELLCEKSIGTANRPMGAGEALRRVLECLASGIVMPDGSGIYDPCEKEATDAIGHLDRQQREDITQSAQHALRLAAFGQLHKVLGMDPLPSKMPKKPKNENPVDYTVQIPPSTTYAITPMKRPMEEDGEEKSPSKKKKKIQKKEEKAEPPQAMNALMRLNQLKPGLQYKLVSQTGPVHAPIFTMSVEVDGNSFEASGPSKKTAKLHVAVKVLQDMGLPTGAEGRDSSKGEDSAEETEAKPAVVAPAPVVEAVSTPSAAFPSDATAEQGPILTKHGKNPVMELNEKRRGLKYELISETGGSHDKRFVMEVEVDGQKFQGAGSNKKVAKAYAALAALEKLFPDTPLALDANKKKRAPVPVRGGPKFAAKPHNPGFGMGGPMHNEVPPPPNLRGRGRGGSIRGRGRGRGFGGANHGGYMNAGAGYGSYGYGGNSATAGYSQFYSNGGHSGNASGGGGGGGGGSSGYGSYYQGDNYNSPVPPKHAGKKQPHGGQQKPSYGSGYQSHQGQQQSYNQSPYSNYGPPQGKQKGYNHGQGSYSYSNSYNSPGGGGGSDYNYESKFNYSGSGGRSGGNSYGSGGASYNPGSHGGYGGGSGGGSSYQGKQGGYSQSNYNSPGSGQNYSGPPSSYQSSQGGYGRNADHSMNYQYR [ILF3]”: in series [1], the “solubility in G1/S (log2)” value is -0.123. The melting temperature was 54.1 °C in series [2] (cell cycle stage: G1/S) and 53.9 °C in series [2] (cell cycle stage: mitosis). In series [3], the “solubility change mitosis (log2)” value was 0.113. Moreover, the thermal stability score in series [4] (setting [5]) is -0.903; in series [4] (cell cycle stage: mitosis), -1.89.
For “MSSRKSKSNSLIHTECLSQVQRILRERFCRQSPHSNLFGVQVQYKHLSELLKRTALHGESNSVLIIGPRGSGKTMLINHALKELMEIEEVSENVLQVHLNGLLQINDKIALKEITRQLNLENVVGDKVFGSFAENLSFLLEALKKGDRTSSCPVIFILDEFDLFAHHKNQTLLYNLFDISQSAQTPIAVIGLTCRLDILELLEKRVKSRFSHRQIHLMNSFGFPQYVKIFKEQLSLPAEFPDKVFAEKWNENVQYLSEDRSVQEVLQKHFNISKNLRSLHMLLMLALNRVTASHPFMTAVDLMEASQLCSMDSKANIVHGLSVLEICLIIAMKHLNDIYEEEPFNFQMVYNEFQKFVQRKAHSVYNFEKPVVMKAFEHLQQLELIKPMERTSGNSQREYQLMKLLLDNTQIMNALQKYPNCPTDVRQWATSSLSWL [ORC4]”, the “solubility in G1/S (log2)” value in series [1] is 0.194. The figures for the melting temperature in series [2] (cell cycle stage: G1/S) and in series [2] (cell cycle stage: mitosis) were 48.8 °C and 49.6 °C, respectively. Moreover, the “solubility change mitosis (log2)” value in series [3] was -0.248. For the same sequence, the thermal stability score is 1.97 in series [4] (setting [5]) and 2.38 in series [4] (cell cycle stage: mitosis).

These data come from the supplement of paper PMC5998384.
